# Experimental data: PMC4703963
# B1: Flag-tagged catalytic domain of PHD2 (181-426), Q9GZT9 181-426 (domain or fragment)
# chain: PNGQTKPLPALKLALEYIVPCMNKHGICVVDDFLGKETGQQIGDEVRALHDTGKFTDGQLVSQKSDSSKDIRGDKITWIEGKEPGCETIGLLMSSMDDLIRHCNGKLGSYKINGRTKAMVACYPGNGTGYVRHVDNPNGDGRCVTCIYYLNKDWDAKVSGGILRIFPEGKAQFADIEPKFDRLLFFWSDRRNPHEVQPAYATRYAITVWYFDADERARAKVKYLTGEKGVRVELNKPSDSVGKDVF
# B2: Prolyl hydroxylase domain protein 2 (PHD2), endogenous, Q9GZT9 1-426 (natural protein)
# chain: MANDSGGPGGPSPSERDRQYCELCGKMENLLRCSRCRSSFYCCKEHQRQDWKKHKLVCQGSEGALGHGVGPHQHSGPAPPAAVPPPRAGAREPRKAAARRDNASGDAAKGKVKAKPPADPAAAASPCRAAAGGQGSAVAAEAEPGKEEPPARSSLFQEKANLYPPSNTPGDALSPGGGLRPNGQTKPLPALKLALEYIVPCMNKHGICVVDDFLGKETGQQIGDEVRALHDTGKFTDGQLVSQKSDSSKDIRGDKITWIEGKEPGCETIGLLMSSMDDLIRHCNGKLGSYKINGRTKAMVACYPGNGTGYVRHVDNPNGDGRCVTCIYYLNKDWDAKVSGGILRIFPEGKAQFADIEPKFDRLLFFWSDRRNPHEVQPAYATRYAITVWYFDADERARAKVKYLTGEKGVRVELNKPSDSVGKDVF
# B3: Flag-tagged PHD2 purified from HEK293T cells, Q9GZT9 1-426 (natural protein)
# chain: MANDSGGPGGPSPSERDRQYCELCGKMENLLRCSRCRSSFYCCKEHQRQDWKKHKLVCQGSEGALGHGVGPHQHSGPAPPAAVPPPRAGAREPRKAAARRDNASGDAAKGKVKAKPPADPAAAASPCRAAAGGQGSAVAAEAEPGKEEPPARSSLFQEKANLYPPSNTPGDALSPGGGLRPNGQTKPLPALKLALEYIVPCMNKHGICVVDDFLGKETGQQIGDEVRALHDTGKFTDGQLVSQKSDSSKDIRGDKITWIEGKEPGCETIGLLMSSMDDLIRHCNGKLGSYKINGRTKAMVACYPGNGTGYVRHVDNPNGDGRCVTCIYYLNKDWDAKVSGGILRIFPEGKAQFADIEPKFDRLLFFWSDRRNPHEVQPAYATRYAITVWYFDADERARAKVKYLTGEKGVRVELNKPSDSVGKDVF
# B4: Flag-tagged PHD2 (with an HA-tagged copy of PHD2 in the co-immunoprecipitation), Q9GZT9 1-426 (natural protein)
# chain: MANDSGGPGGPSPSERDRQYCELCGKMENLLRCSRCRSSFYCCKEHQRQDWKKHKLVCQGSEGALGHGVGPHQHSGPAPPAAVPPPRAGAREPRKAAARRDNASGDAAKGKVKAKPPADPAAAASPCRAAAGGQGSAVAAEAEPGKEEPPARSSLFQEKANLYPPSNTPGDALSPGGGLRPNGQTKPLPALKLALEYIVPCMNKHGICVVDDFLGKETGQQIGDEVRALHDTGKFTDGQLVSQKSDSSKDIRGDKITWIEGKEPGCETIGLLMSSMDDLIRHCNGKLGSYKINGRTKAMVACYPGNGTGYVRHVDNPNGDGRCVTCIYYLNKDWDAKVSGGILRIFPEGKAQFADIEPKFDRLLFFWSDRRNPHEVQPAYATRYAITVWYFDADERARAKVKYLTGEKGVRVELNKPSDSVGKDVF
# B5: Wild-type HA-PHD2 purified from HEK293T cells, Q9GZT9 1-426 (natural protein)
# chain: MANDSGGPGGPSPSERDRQYCELCGKMENLLRCSRCRSSFYCCKEHQRQDWKKHKLVCQGSEGALGHGVGPHQHSGPAPPAAVPPPRAGAREPRKAAARRDNASGDAAKGKVKAKPPADPAAAASPCRAAAGGQGSAVAAEAEPGKEEPPARSSLFQEKANLYPPSNTPGDALSPGGGLRPNGQTKPLPALKLALEYIVPCMNKHGICVVDDFLGKETGQQIGDEVRALHDTGKFTDGQLVSQKSDSSKDIRGDKITWIEGKEPGCETIGLLMSSMDDLIRHCNGKLGSYKINGRTKAMVACYPGNGTGYVRHVDNPNGDGRCVTCIYYLNKDWDAKVSGGILRIFPEGKAQFADIEPKFDRLLFFWSDRRNPHEVQPAYATRYAITVWYFDADERARAKVKYLTGEKGVRVELNKPSDSVGKDVF
# Assays:
# Details in all cases: remark: other sources report otherwise
# [1] = molecular target: Flag-tagged catalytic domain of PHD2 (181-426) (human), Q9GZT9; experiment: non-reducing SDS-PAGE with immunoblot; total cell lysates (1% IGEPAL, 150 mM NaCl, 50 mM Tris-HCl pH 7.9, no reducing agent) in sample buffer without β-ME; cells treated with H2O2 (50-200 uM), T-hydro (1-3 uM), diamide (0.1-1 mM), 10% FBS or expressing H-ras V12
# [2] = molecular target: Prolyl hydroxylase domain protein 2 (PHD2), endogenous (human (endogenous in U2OS, H2030, A549)), Q9GZT9; experiment: as above
# [3] = molecular target: Flag-tagged PHD2 purified from HEK293T cells (human), Q9GZT9; experiment: non-reducing SDS-PAGE with immunoblot; tagged PHD2 affinity-purified (Flag or HA gel, peptide elution) from H2O2-treated HEK293T cells, run without DTT
# [4] = molecular target: Flag-tagged PHD2 (with an HA-tagged copy of PHD2 in the co-immunoprecipitation) (human), Q9GZT9; experiment: non-reducing SDS-PAGE with immunoblot; total cell lysates (1% IGEPAL, 150 mM NaCl, 50 mM Tris-HCl pH 7.9, no reducing agent) in sample buffer without β-ME; cells treated with H2O2 (50-200 uM), T-hydro (1-3 uM), diamide (0.1-1 mM), 10% FBS or expressing H-ras V12
# [5] = molecular target: Wild-type HA-PHD2 purified from HEK293T cells (human), Q9GZT9; experiment: non-reducing SDS-PAGE with immunoblot; tagged PHD2 affinity-purified (Flag or HA gel, peptide elution) from H2O2-treated HEK293T cells, run without DTT
binder,measurement,setting,value
B1,stoichiometry N,[1],2
B2,stoichiometry N,[2],2
B3,stoichiometry N,[3],2
B4,stoichiometry N,[4],2
B5,stoichiometry N,[5],2
